Publication PMC8574189, “Surface-induced dissociation of protein complexes on a cyclic ion mobility spectrometer†” (The Analyst, 2021)

What was measured:
[1] = biological target: alcohol dehydrogenase tetramer (from saccharomyces cerevisiae) (saccharomyces cerevisiae) (UniProt P00330); assay: native MS; nanoelectrospray, 200 mM ammonium acetate, or charge-reduced in 160 mM ammonium acetate with 40 mM TEAA or EDDA; 5–10 μM protein complex; cyclic IMS (cIMS) and Synapt G2; TRAP with 14 equivalents of trp
[2] = biological target: αβγHis heterotrimer of His-tagged toyocamycin nitrile hydratase (TNH); assay: as above
[3] = biological target: streptavidin homotetramer (UniProt P22629); assay: as above
[4] = biological target: the molecule itself; assay: as above
[5] = biological target: T1, C-reactive protein pentamer, P02741; assay: as above; conditions: remark: other sources report otherwise
T1 chain: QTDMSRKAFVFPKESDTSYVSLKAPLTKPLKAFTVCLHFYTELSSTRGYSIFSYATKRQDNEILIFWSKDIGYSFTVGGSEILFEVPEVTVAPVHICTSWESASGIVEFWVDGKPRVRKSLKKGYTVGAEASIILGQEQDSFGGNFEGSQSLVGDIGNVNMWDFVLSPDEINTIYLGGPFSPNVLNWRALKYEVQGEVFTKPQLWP

native MS = biological target: the molecule itself; assay: native MS

In the case of “alcohol dehydrogenase tetramer (from saccharomyces cerevisiae) (from UniProt P00330 1-348) (enzyme)”, the stoichiometry N [1] is reported as 4.

In the case of “αβγHis heterotrimer of His-tagged toyocamycin nitrile hydratase (TNH) (complex)”, the stoichiometry N [2] is reported as 2.

“streptavidin homotetramer (from UniProt P22629 25-183) (natural protein)” gave a stoichiometry N [3] of 4.

B1: phosphorylase B dimer from rabbit muscle (enzyme, UniProt P00489 1-843, looked up)
chain: MSRPLSDQEKRKQISVRGLAGVENVTELKKNFNRHLHFTLVKDRNVATPRDYYFALAHTVRDHLVGRWIRTQQHYYEKDPKRIYYLSLEFYMGRTLQNTMVNLALENACDEATYQLGLDMEELEEIEEDAGLGNGGLGRLAACFLDSMATLGLAAYGYGIRYEFGIFNQKICGGWQMEEADDWLRYGNPWEKARPEFTLPVHFYGRVEHTSQGAKWVDTQVVLAMPYDTPVPGYRNNVVNTMRLWSAKAPNDFNLKDFNVGGYIQAVLDRNLAENISRVLYPNDNFFEGKELRLKQEYFVVAATLQDIIRRFKSSKFGCRDPVRTNFDAFPDKVAIQLNDTHPSLAIPELMRVLVDLERLDWDKAWEVTVKTCAYTNHTVLPEALERWPVHLLETLLPRHLQIIYEINQRFLNRVAAAFPGDVDRLRRMSLVEEGAVKRINMAHLCIAGSHAVNGVARIHSEILKKTIFKDFYELEPHKFQNKTNGITPRRWLVLCNPGLAEIIAERIGEEYISDLDQLRKLLSYVDDEAFIRDVAKVKQENKLKFAAYLEREYKVHINPNSLFDVQVKRIHEYKRQLLNCLHVITLYNRIKKEPNKFVVPRTVMIGGKAAPGYHMAKMIIKLITAIGDVVNHDPVVGDRLRVIFLENYRVSLAEKVIPAADLSEQISTAGTEASGTGNMKFMLNGALTIGTMDGANVEMAEEAGEENFFIFGMRVEDVDRLDQRGYNAQEYYDRIPELRQIIEQLSSGFFSPKQPDLFKDIVNMLMHHDRFKVFADYEEYVKCQERVSALYKNPREWTRMVIRNIATSGKFSSDRTIAQYAREIWGVEPSRQRLPAPDEKIP
notes: glycogen phosphorylase b from rabbit muscle; 195 kDa dimer; also called PHB; source: from rabbit muscle, bought: Sigma Aldrich (lyophilized powder)
For B1, the “stoichiometry N” value [4] was 2.

B2: trp RNA binding attenuation protein (TRAP) homo-11mer (natural protein, UniProt Q9X6J6 1-74, looked up)
chain: MYTNSDFVVIKALEDGVNVIGLTRGADTRFHHSEKLDKGEVLIAQFTEHTSAIKVRGKAYIQTRHGVIESEGKK
notes: 91 kDa homo-11mer; it could be B. subtilis; also called holoTRAP; source: obtained from the Foster group (The Ohio State University) and the Gollnick group (State University of NY, Buffalo); copies: 11
With B2 the “stoichiometry N” value [4] was 11.

B3: C-reactive protein pentamer, P02741 19-224 (natural protein)
chain: T1 chain
With B3 the stoichiometry N [5] was 5.

B4: cholera toxin B homopentamer (natural protein)
chain: TPQNITDLCAEYHNTQIYTLNDKIFSYTESLAGKREMAIITFKNGAIFQVEVPGSQHIDSQKKAIERMKDTLRIAYLTEAKVEKLCVWNNKTPHAIAAISMAN
notes: also called 58 kDa cholera toxin B homopentamer
For B4, the “stoichiometry N” value (native MS) was 5.
